Reference: patent publication US20140235820A1, “METHODS AND COMPOSITIONS FOR MODULATING THE Wnt PATHWAY” (Genentech, Inc., priority 2010, published 2014)
Residue numbers refer to the chain shown, from its start.

T1: LRP6 E1E2 (Homo sapiens, UniProt O75581)
T1 construct: construct E1E2-amino acids A20-E631 of LPR6; made in house; host or cells: Tni insect cells (baculovirus, secreted)
T1 sequence (O75581 20-631): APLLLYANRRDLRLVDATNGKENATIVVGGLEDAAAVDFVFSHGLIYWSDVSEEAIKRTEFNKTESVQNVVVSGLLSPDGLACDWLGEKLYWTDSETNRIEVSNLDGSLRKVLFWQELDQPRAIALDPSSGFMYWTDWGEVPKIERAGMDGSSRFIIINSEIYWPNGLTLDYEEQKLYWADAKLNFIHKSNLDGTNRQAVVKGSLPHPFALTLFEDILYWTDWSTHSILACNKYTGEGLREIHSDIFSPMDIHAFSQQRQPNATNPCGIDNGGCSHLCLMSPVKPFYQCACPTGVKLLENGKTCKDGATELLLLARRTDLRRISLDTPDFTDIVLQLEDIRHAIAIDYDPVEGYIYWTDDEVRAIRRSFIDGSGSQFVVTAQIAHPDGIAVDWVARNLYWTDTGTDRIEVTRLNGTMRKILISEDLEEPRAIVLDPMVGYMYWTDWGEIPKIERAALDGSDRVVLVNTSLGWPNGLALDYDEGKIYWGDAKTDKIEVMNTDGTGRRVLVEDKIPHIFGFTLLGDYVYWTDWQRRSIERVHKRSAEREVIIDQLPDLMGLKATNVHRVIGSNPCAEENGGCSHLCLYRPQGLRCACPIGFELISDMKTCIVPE

T2: LRP6 E1E2 Asn185Ser (human, UniProt O75581 20-631)
T2 construct: range 20-631; also called LRP6 E1E2 N185S (analogue of LRP5 BMD mutation Asn198Ser)
T2 sequence (looked up): T1 sequence (O75581 20-631) with N166S

T3: LRP6 E1E2 Arg141Met (human, UniProt O75581 20-631)
T3 construct: range 20-631; also called LRP6 E1E2 R141M
T3 sequence (looked up): T1 sequence (O75581 20-631) with R122M

T4: human LRP6 construct E3E4 (amino acids E631-Q1253) (human, UniProt O75581 631-1253, biotinylated for biolayer interferometry)
T4 construct: range 631-1253; also called LRP6 E3E4
T4 sequence (looked up): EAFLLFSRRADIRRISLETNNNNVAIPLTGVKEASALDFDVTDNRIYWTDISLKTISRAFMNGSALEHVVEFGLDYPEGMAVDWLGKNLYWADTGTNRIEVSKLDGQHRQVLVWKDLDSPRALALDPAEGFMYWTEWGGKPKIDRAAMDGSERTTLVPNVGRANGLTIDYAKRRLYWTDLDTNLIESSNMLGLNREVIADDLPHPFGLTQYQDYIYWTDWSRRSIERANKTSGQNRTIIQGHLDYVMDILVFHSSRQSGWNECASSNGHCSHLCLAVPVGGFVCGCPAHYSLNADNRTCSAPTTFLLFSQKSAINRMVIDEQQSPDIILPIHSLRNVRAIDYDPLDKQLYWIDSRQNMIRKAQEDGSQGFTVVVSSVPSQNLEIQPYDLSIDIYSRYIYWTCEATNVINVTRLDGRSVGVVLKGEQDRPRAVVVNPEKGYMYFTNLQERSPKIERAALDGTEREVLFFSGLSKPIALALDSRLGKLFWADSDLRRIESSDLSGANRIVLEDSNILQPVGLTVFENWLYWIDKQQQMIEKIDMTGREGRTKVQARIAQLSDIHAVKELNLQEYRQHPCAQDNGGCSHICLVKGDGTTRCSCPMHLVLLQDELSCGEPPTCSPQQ

T5: human LRP6 construct E4 (T933-Q1253) (human, UniProt O75581 933-1253, biotinylated for biolayer interferometry)
T5 construct: range 933-1253; also called LRP6 E4
T5 sequence (looked up): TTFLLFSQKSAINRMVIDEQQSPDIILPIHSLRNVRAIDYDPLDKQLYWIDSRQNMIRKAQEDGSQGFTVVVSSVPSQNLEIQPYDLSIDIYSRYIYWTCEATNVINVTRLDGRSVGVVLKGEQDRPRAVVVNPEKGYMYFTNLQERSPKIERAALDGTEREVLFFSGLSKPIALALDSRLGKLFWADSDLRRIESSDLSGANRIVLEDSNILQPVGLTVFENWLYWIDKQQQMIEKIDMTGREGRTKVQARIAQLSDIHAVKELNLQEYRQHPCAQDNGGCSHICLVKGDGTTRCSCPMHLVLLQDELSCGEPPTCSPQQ

B1: Sclerostin (wild type) (ligand, UniProt Q9BQB4 24-213, looked up)
chain: QGWQAFKNDATEIIPELGEYPEPPPELENNKTMNRAENGGRPPHHPFETKDVSEYSCRELHFTRYVTDGPCRSAKPVTELVCSGQCGPARLLPNAIGRGKWWRPSGPDFRCIPDRYRAQRVQLLCPGGEAPRARKVRLVASCKCKRLTRFHNQSELKDFGTEAARPQKGRKPRPRARSAKANQAELENAY
notes: also called SOST; Sost

How the values were obtained:
LRP6 E1E2 = biological target: T1, LRP6 E1E2; assay: Competition phage ELISA, peptide affinity for LRP6 E1E2; assay type: binding; settings: relative to Dkk1 peptide
Protocol: Peptide affinities were also determined by competition with phage displaying a binding peptide (competition phage ELISA). Serial dilutions of test peptide were mixed with an appropriate (non-saturating) concentration of phage before exposing the mixture to target and allowing it to reach equilibrium. After washing to remove unbound material, bound phage were detected by incubation with anti-M13 antibody-horseradish peroxidase (HRP) conjugate and exposure to a suitable colorometric HRP substrate.
Seven-residue peptides from Dkk1 and Sost were synthesized by standard Fmoc procedures. FIG. 7B. These peptides include the “NXI” motif described above. Affinities of the peptides for LRP6 E1E2 were determined by competition phage ELISA (41). […] To understand the detailed interactions of the peptides with LRP6, we determined high-resolution co-crystal structures of the peptides bound to the LRP6 E1 β-propeller. Structures were determined by molecular replacement and refined to 1.9 and 1.5 Å resolution for Dkk1 and Sost peptides, respectively (FIG. 8). Remarkably, the peptides show very similar bound-state conformations compared to the antibody loop, in each case placing the key asparagine side chain in position for the “handshake” interaction described above. Peptide isoleucine residues occupy the hydrophobic pocket where the valine side chain of the antibody loop interacts. […]

LRP6 E1E2 Asn185Ser = biological target: T2, LRP6 E1E2 Asn185Ser; assay: BLI steady-state affinity
Protocol: (§1) Binding kinetics were measured by biolayer interferometry using an Octet Red instrument (ForteBio) as previously described (11). Streptavidin (SA) biosensors were loaded with biotinylated hLRP6 in 50 mMTris, pH 8, 300 mM NaCl, 5% (v/v) glycerol, and 0.05% (w/v) Triton X-100. The loaded biosensors were washed in the same buffer before carrying out association and dissociation measurements for the indicated times. The Kd of each interaction was determined using steady state-analysis through the Octet Red software v6.3. Each reported value represents an average of three or more experiments at different concentrations, with a fitted experimental curve for which the square of the correlation coefficient (R²) is above 0.96.

LRP6 E1E2 Arg141Met = biological target: T3, LRP6 E1E2 Arg141Met; assay: BLI steady-state affinity
Protocol: as §1

[1] = biological target: T4, human LRP6 construct E3E4 (amino acids …); assay: BLI, biotinylated LRP6 on streptavidin tips
Protocol: as §1
(§2) Purified receptors contained individual β-propeller-EGF-like units (E1, E2, or E4), two β-propellers (E1E2 or E3E4), or four β-propellers (E1E4))—as follows: […]

[2] = biological target: T5, human LRP6 construct E4 (T933-Q1253); assay: BLI, biotinylated LRP6 on streptavidin tips
Protocol: as §1, §2

Molecule	binds more weakly than the Dkk1 peptide (LRP6 E1E2)	fold loss in affinity against wild-type LRP6 E1E2 (LRP6 E1E2 Asn185Ser)	fold loss in affinity against wild-type LRP6 E1E2 (LRP6 E1E2 Arg141Met)	binding result [1]	binding result [2]
Ac-LPNAIGR-NH2 (N-terminus and C-terminus assumed) [sclerostin peptide]	about 10 fold	–	–	–	–
B1	–	59 fold	31 fold	no binding	no binding
